Data taken from US6770740B1, “Crosslinked DNA condesate compositions and gene delivery methods” (The Regents of the University of Michigan, priority 1999, dated 2004).
Where no end group is shown, it is not given here. The star is where a group is joined. Carboxymethyl = O=C(O)C*

Experiments:
[1] = QELS particle size and zeta potential of glycopeptide DNA condensates, Example 3; type: physicochemical; conditions: 0.5 nmol of peptide or glycopeptide per μg of DNA; 50 μg/mL DNA in HBM
Description: Glycopeptide DNA condensates were formed at a plasmid DNA concentration of 50 μg/mL in HBM (5 mM Hepes 0.27 M mannitol pH 7.4). DNA condensates were formed by combining 750 μL of plasmid DNA (100 μg/mL) with 750 μL of triantennary-CWK18 (50 nmol/mL), Man9-CWK18, or AlkCWK18 while vortexing. The particle size of glycopeptide and peptide DNA condensates were analyzed at a DNA concentration of 50 μg/mL in HBM by quasielastic light scattering (QELS) (Cohen et al., 1990). The particle surface charge was determined at 50 μg/mL in HBM by zeta potential analysis using a Brookhaven ZetaPlus™ (Brookhaven Instruments).

HepG2 cells [2] = test: Cell binding of 125I-DNA condensates, Example 1; type: cell-based; conditions: 5 h transfection, 10 μg 125I-DNA condensates
Description: Iodinated plasmid DNA was prepared with specific activity of 300 nCi per μg of DNA as described previously (Teribesi et al., 1998). Prior to forming DNA condensates, the specific activity of the ^125I DNA was adjusted to 4.5 nCi per μg of DNA by combining with unlabeled plasmid. DNA condensates were prepared using AlkCWK18, PEG-SS-CWK18 or PEG-VS-CWK18 as described above. Peptide ^125I-DNA condensates (10 μg) were used to transfer HepG2 cells for 5 h according to the procedure described above. The radioactive media was removed, cells were washed with phosphate buffered saline, harvested with lysis buffer, and the cell-associated radioactivity was quantified by gamma counting.

[3] = Particle size and zeta potential of peptide DNA condensates after freeze-drying and rehydration, Example 2; type: physicochemical
Description: The concentration of AlkCWK18 and PEG-CWK18 were determined by UV absorbance (Trp, ε280 nm=5,600 M^−1 cm^−1). Peptide DNA condensates were prepared in 5 mM Hepes pH 5 at a peptide/DNA stoichiometry of 0.3 nmol of peptide/μg of DNA. The condensates were formed by adding 450 μL of 100 μg/mL NT-βGal drop wise to 450 μL of 30 nmol/mL AlKCWK18 or PEG-CWK18 while vortexing. Each sample was prepared in triplicate, and after a 30 min equilibration, 20-100 μL of 50 wt/vol % solutions of either glucose, mannitol, galactose, dextran or sucrose were added followed by normalization to 1 mL to give a final sugar concentration of 1-5 wt/vol % and DNA concentration of 50 μg/mL.
The mean particle size of 50 μg/mL AlkCWK18 DNA condensates were determined by quasielastic light scattering (QELS) on a Brookhaven ZetaPlus™. Samples (1 mL) were frozen rapidly in dry ice ethanol in a 1.5 mL microcentrifuge tube and then lyophilized on a Labconco™ freeze dryer for 24 h operated at a constant vacuum of 55×10^−6 mBar while maintained at room temperature (22° C.). The maximal vacuum was achieved within 2 min after applying the sample.
At the highest sucrose concentration of 5 wt/vol %, samples remained frozen throughout freeze-drying but dried to form a glassy solid after 24 h. […] Freeze-dried samples prepared in triplicate were reconstituted in 1 mL of deionized water, allowed to equilibrate for 30 min and then analyzed by QELS as described above. Large peptide DNA condensates were measured by light microscopy with magnification of 100X. The particle size of PEG-peptide DNA condensates were also measured by transmission electron microscopy (TEM) according to a published procedure (Wadhwa et al., 1997).
The relationship between pH and rehydrated peptide DNA condensate particle size was examined in 5 mM Hepes at a pH range of 3-7. The particle size of 50 μg/mL DNA condensates in 5 wt/vol % sucrose was determined by QELS before and after freeze-drying as described above.
The rehydrated particle size of AlkCWK18 or PEG-CWK18 DNA condensates were also examined at a concentration of 0.05-5 mg/mL in 5 mM Hepes pH 5 with (AlkCWK18 DNA) or without (PEG-CWK18 DNA) the addition of 5 wt/vol % sucrose. DNA condensates were freeze-dried and reconstituted to the original concentration. QELS particle size analysis before and after freeze-drying required dilution of an aliquot of the sample to concentration of 50 μg/mL. Freeze-dried 5 mg/mL PEG-CWK18 DNA condensates were also reconstituted in 0.9 wt/vol % sodium chloride and analyzed for particle size.

HepG2 cells [4] = test: Nuclear targeted β-galactosidase (X-gal) count of transfected HepG2 cells; type: cell-based; conditions: HepG2, 48 h, NTβGal plasmid
Description: The number of cells transfected in vitro was examined using a plasmid encoding nuclear targeted β-galactosidase followed by X-gal (5-bromo-4-chloro-3-indolyl-β-galactopyranoside) staining. HepG2 and COS 7 cells were transfected for 5 h as described above with either AlkCWK18 DNA, peptide II DNA condensates, or plasmid DNA and then grown in fresh media for an additional 43 h. After removing media, cells were fixed for 5 min in phosphate-buffered saline (PBS, pH 7.3) containing 1.25 vol/vol % glutaraldehyde and then stained by incubation with 0.05 wt/v % X-gal, 1 mM magnesium chloride, 10 mM potassium ferricyanide, and 10 mM potassium ferrocyanide in PBS. After 4 h at 37° C., the X-gal solution was removed and the nuclear stained blue cells were counted with a light microscope under ten power magnification by averaging the number of transfectants from nine fields. Values were analyzed for significance by one-way analysis of variance.

**Q.** Which results are given for “Alk-S-Cys-Trp-Lys18 (C(Carboxymethyl)WKKKKKKKKKKKKKKKKKK) [AlkCWK18]”?
**A.** mean particle size of DNA condensates [1]: 81 nm; cell associated 125I-DNA, percent of dose (HepG2 cells [2]): Approximately 14%; minimum sucrose concentration to bulk DNA condensates during freeze-drying ([3]; 50 μg/ml DNA condensates): 1 wt/vol %; diameter of fibrous flocculates after freeze-drying and rehydration without lyoprotectant ([3]; 50 μg/ml DNA condensates, light microscopy): approximately 100 μm; upper limit of DNA condensate concentration below which rehydrated particle size was maintained ([3]; 5 wt/vol % sucrose, 5 mM Hepes pH 5): 200 µg/mL; mean particle diameter during rehydration ([3]; 5 wt/vol % sucrose, DNA concentrations up to 200 μg/mL): less than 50 nm; zeta potential ([3]; pH 3): +30 mV

**Q.** With “Cys-Trp-Lys17-Cys (CWKKKKKKKKKKKKKKKKKC) [Peptide II]” as the substance, how does the “more cells transduced (nuclear stained) vs. AlkCWK18” value (HepG2 cells [4]) read?
**A.** The value was “approximately 9 fold”.
